Laboratory results published in patent US20100239568A1, “DIAGNOSTICS AND TREATMENTS FOR TUMORS” (GENENTECH, INC., priority 2006, published 2010).

Experiments:
[1] = tested on: HUVEC cells; test: HUVEC proliferation assay; type: cell-based, human; settings: found in high salt fraction of EL4 and L1210 tumor lysates
Procedure: HUVEC proliferation assay: HUVEC at passage less than 8 were used in the study. Day 1: 3000 cells/well (96-well plate) were plated onto 1% gelatin-coated plate in the assay media (DMEM:F12 50:50) with 1.5% FBS. Day 2: Media was changed and cells were treated with various growth factors or conditioned media. Day 3: ^3H-thymidine was added at 0.5 μCi/well. Day 4: 250 mM EDTA/well was added to stop the reaction in the morning. Cells were harvested onto 96-well filter plate and washed with water 3 times. ^3H samples were counted with TOPCOUNT liquid scintillation counter.

[2] = tested on: monocytes; test: Monocyte migration assay; type: cell-based, human; settings: found in high salt fraction of EL4 and L1210 tumor lysates
Procedure: Monocyte migration assay: Step 1: isolation of monocyte from human PBMC. Blood was diluted with PBS 1:1 (v/v). The diluted blood was slowly added on top of Ficoll and centrifuged at 3000 rpm for 15 min at room temperature (RT) without break. Plasma was removed and white cells were collected (9˜5 ml interphase). Cells were washed in migration buffer containing PBS with 0.5% BSA (low in endotoxin), spun at 1850 rpm (9˜800 g) for 10 min at RT and cells were counted. Step 2: Magnetic labeling of cells. Cell pellet was resuspended in MACS buffer containing PBS with 0.5% BSA (low in endotoxin) and 2 mM EDTA, 30 μl per 10^7 cells. FcR blocking reagent and Biotin-antibody cocktails were added and mixed well. The cells were then incubated for 10 min at 4° C. after which 30 μl more MACS buffer per 10^7 cells was added and anti-biotin Microbeads was added. This was mixed well and incubated for 10 min at 4° C. Cells were washed with MACS buffer by adding 10-20 fold more of the labeling volume, spun at 300g (1250 rpm) for 10 min. Cells were resuspended in up to 10^8 cells in 2 ml buffer. Step 3: Magnetic separation with LS columns. LS column (Miltenyi Biotec) was placed in the magnetic field holder. Column was rinsed with MACS buffer. Cell suspension was applied to the column. Unlabelled flow was collected, which represents enriched monocyte fraction. […]

B1: bFGF: growth factor found in the high salt fraction of resistant tumor lysates (protein, UniProt P15655 10-154, looked up)
Fibroblast growth factor 2: PALPEDGGAAFPPGHFKDPKRLYCKNGGFFLRIHPDGRVDGVREKSDPHVKLQLQAEERGVVSIKGVCANRYLAMKEDGRLLASKCVTEECFFFERLESNNYNTYRSRKYSSWYVALKRTGQYKLGSKTGPGQKAILFLPMSAKS
[1]
  proliferation of HUVEC cells: contribute to the proliferation of HUVEC cells
[2]
  chemotactic activity: not chemotactic activity
